Laboratory results: the domain aggregation screens of Martell et al. (2025)

Test: soluble fraction after stress (log2 fold change); higher = more stays soluble; pooled small domains, quantitative proteomics
Conditions: stress: pH 4
Method in brief: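 Aggregation propensity is estimated from the fold change in each domain's soluble amount after acid stress. Pooled small-domain libraries were stressed at pH 4, and higher log2 values mean more stayed soluble.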

HMELRIREILESKDIKVSSLAETVGITRANMSNIVNGKSTPSLETLEKIANALGVDITELFA
soluble fraction (log2): -0.573

HMELSAEGWVDGTGVRMRASASTDSEVVRVTEDGESLDITGVSGTWYRVTAGGVSGYIRSDYVSLEEP
soluble fraction (log2): -0.186

HMELSAQEIGRRLRIARENADIRQDDAAQVIGMSRPTLVSIEKGVRRVRIQEIQMLARHYGVSVNALLR
soluble fraction (log2): -0.2

HMELSVTDRTRQIRHILKEKGRVEFTSLFEELTKPYVIVTFLSVLEMSKNNELMITQDKTFGSITLEMKG
soluble fraction (log2): -0.383

HMELVIGESLAVELLRPGKEDGQALGYLPDGSMVVVNNGRAFVGKRVTAEIIGVIRSAGGKMVFSNLLGE
soluble fraction (log2): -2

HMEMDITIQMRTLVEELNRASDAYYNGRGELMTDYEWDAKFDQLKQLESQSGVVLPDSPTHRV
soluble fraction (log2): -1.51

HMEMELNHVARRAGRLSGFLKGELRLSTGLMNRLKWSNAILVNGKPARTNAQVEPGDRITVILD
soluble fraction (log2): 0.189

HMEMLQENIRNLRKAKGWSQEELAIKLNVVRQTVSKWEKGLSVPDSQMLIRIADELDTTVAILLG
soluble fraction (log2): 0.253

HMEMLQRFIFLENVSSTQVESAIKELHPNLNLKRVKLSFPGADTVLLKGPKQDLELAEELIRHLDRSE
soluble fraction (log2): -0.609

HMEMPGGVMRTLSTIAYNQPVLQSKLVKVRGPRAYEDVHILRDMGLVSARSVGQTVELSTTPKFAEQF
soluble fraction (log2): 0.102

HMENEIFVPKVFMDWYNKVDKSIKVFKAFNLIEKETDPRLKEWVEDNQDEFAKIWLGQLLPVV
soluble fraction (log2): -0.35

HMENFIPDDPKRIEIGMSVLHQRFGKGKVMQLEGNLPDMKATVNFEGEGQKQLLLKYARLKIV
soluble fraction (log2): -0.0241

HMENIDVGQDYKVTMNTIQNLMKTGLVTGTQYKELLREMGVHSGMGAITAQQHQIALDFLNKTMDSA
soluble fraction (log2): -0.444

HMENIIKISASYEGLRVDQFLSNYLKISRSKVQKYISEEKIFLNNVPTKTNRKVKLDDIISYNLNF
soluble fraction (log2): 0.0839

HMENITTILRSIKNEIKKNSTFVGDDFVNQARSMNQGQIKEKSIYGHGTKKEIEELRDEGVDVLNIPWIT
soluble fraction (log2): 0.0184

HMENKIIKNAAHATLKVKKDAGIEITTELIREAVILFHRIYSPNDNPNINWERIINELESHYT
soluble fraction (log2): -0.993

HMENLFPDYTMQDYRIVRSELSSKFKVQTVPVTTATATENKIVRQEPEAGSRITEGMTVILYYSIGPE
soluble fraction (log2): 0.0963

HMENLRLSELTVERGHRLAGRTLADIASAPNSPKYLIVLIQRGQETVIPTGSTVILPGDVLILAQS
soluble fraction (log2): -0.749

HMENMSFGTKLYTWLYGKLVGSDEIGNKYYTNINDPSDLNAKRWVIFNGEIEASKIPPHWHAWLHKSIDK
soluble fraction (log2): -0.265

HMENMTLGQRIQALRKQHGLSQEGLGERLGVSRQAISRWEMDGAVPEVDKLIAMARLFGVSLNQLLGVE
soluble fraction (log2): -0.0911

HMENNIPANIKALIISYVNQNYPGAVIHSIERNSNGTYDVEIYYNNREYDLLFDAQGNFISGNVDDQ
soluble fraction (log2): -0.366

HMENNIRLSVPDTESGQRIDSYLAEQIPGLTRSAVQNLLAEQAVTIAGKAVKKNYKLLGGEDILVQLPEVR
soluble fraction (log2): ≥ 0.43

HMENPPISVVIPPSFRGQRIDKALGSLIGDYSRSKIQQWLQSGLVQSAGEPLLPKYTVLGNEQILIAVPS
soluble fraction (log2): 0.03

HMENQGEDMRQQVKALVNADKTNITKLATATGYSRSTISMYLAGNYKGDVEAVERRLEEYMKTQG
soluble fraction (log2): 0.167

HMENSYSVEDLALKAAISVDTIRYYQGLGLISPPQKNGRRAIYGNDHISRLEEIKKLAFEGFSLRQISLL
soluble fraction (log2): 0.22

HMENTIPSVIGRTLSDGVFLLESYGYVKGNVSEEFSEMPIGVIIRQFPGAGSAAEAGTRVDLVVSKGEEIV
soluble fraction (log2): -0.316

HMENVALYIRLKSMASVYDDVHGYNIEWIKSMIGLSIDIEKLRTVLEDVSWITKVEEDVYSFSKNAKPFE
soluble fraction (log2): -2.32

HMENVQLRNFAIKATEAGIIKLSSDQRTFMWASNQKKLMTVPFDEHPYSAMAQFFKTDEGLAVFKSIEKKL
soluble fraction (log2): -0.428

HMEPADALVAALVARGVSPSTARITVKQYPATRIQPQLEVFDYLVAQKDPKVSRNPPGFLLSAIRGEYA
soluble fraction (log2): 0.0562

HMEPAPELTPREQQVLARIALGMTDKAIAEELGVSHQTVRNHVARIYQKIKVHSRSQAVVWAREKGI
soluble fraction (log2): 0.0801

HMEPDEESVRLKEEILSRIDYWHTTMPYMGTRKLAAKLRTEGYAVGRKLVRTYMREMGIHAVYP
soluble fraction (log2): -0.293

HMEPELSVDMKPLDGLLLAIKKELQAAQMYTRLARASADAEQKMVFEQLANMEKGHKARLEDIYT
soluble fraction (log2): -0.348

HMEPESTMIEISETLTNERLDRYLATKLPNVSRGGIQRLLREGNILVNGKKAKPTQHPVAGQKIEITWPNP
soluble fraction (log2): -0.11

HMEPEYIGELEKRIKKLKTHTYSSIDRLMKSISKKYKITTQVLHDDFKNKHNEIPDEWVKQF
soluble fraction (log2): 0.22

HMEPKIKQIVPNVVNYPVEDAKNVLVNSGLIVQIRGQGNIVYDQVPKGGAEVTRGTTVILDLNPPPGA
soluble fraction (log2): -0.768

HMEPKQIEVPNLVGISSAAARQTLSALGLHAVVKDSIWSETERIDTVLEQNPAGGALIKPEGTVYLRVSR
soluble fraction (log2): 0.0547

HMEPLIRTLEEQIAEKIKNYRKGTRVYDAEHVDRWISQLPEEERMVVLTETNRLLEQNYVDQAKLME
soluble fraction (log2): -0.803

HMEPMLEIFDAKIDLADVLAVESGLVRLRGGAEVTSPRVDVDAGARLELDSGARLNVERLSY
soluble fraction (log2): -0.823

HMEPMTDQQILEGFAEFKRQNPDLMNRPATQAIVNLTLPGGTPISFRSGAGAAALNQYLESIGMRAGP
soluble fraction (log2): -0.0242

HMEPPAPAPDIPYPSRVTVRREVDGWPHYYGTWTRTPPVLGYEGIWLVGVSLDGKVQFVPVDDVTIA
soluble fraction (log2): -0.555

HMEPREEFTFADLRANGLNGTAAAAGRRAALGAALGIGYGNAKQFLRRLNHYGVTRSEWEAALADLDE
soluble fraction (log2): -0.0963

HMEPSERYKALQSLLPDYAKRLKKKGVTRHQLFLEYRLTHPDGYARSRFGTYFQAYLALSHP
soluble fraction (log2): ≥ 0.43

HMEPTLVVARDKDAKSPLVAKLMKELGVDAAPRVIVDDSVIGGAKLSHNHTEIDATYKTALINLYQAIT
soluble fraction (log2): -0.0179

HMEPVFSDPARQTLYQEVMELPAKYRVPLYLYYYEGYKVDEVGELLGLNASTVQTRLARARAKLKIQL
soluble fraction (log2): -0.17

HMEQETVTVPDLVGKDVVAAQAELHEMGLSGKPDGTGTTVVSQFPVAGARVLKHTNVILYTED
soluble fraction (log2): 0.0839

HMEQFRENIVRIYMEIDDYENGAKFLEMGNNRDASFYELAGDFYKYFGENELANENYDLAISA
soluble fraction (log2): -1.39

HMEQIPEEYKKIYSLITDIPININDIAKKSLLELREVSSKLTMLELDGKVVKLPGNMYIRGDL
soluble fraction (log2): -0.0736

HMEQKELAPLVPQEDGSVKLTNLAGYSMREVAAALEGGNLSLIPIGSGTSWKQDPAPGTVLQPGNTVTVYF
soluble fraction (log2): -0.209

HMEQPLSLKLANNAFSRFWGNANPAEKDTQPNNSDIAKWVIEQSGGKITQTMADKIAQIIRPEWAA
soluble fraction (log2): 0.25

HMEQSGDELKTWVDQAIAAYPEKVKEYQQGKKGLLALFIGEVMKRSKGTADPKKVNQLVTEALS
soluble fraction (log2): -0.211

HMEQTMNDMLKLVDLLPQNQQDIVRMRFYENMSFKEIAESNQISINTALGRMRYAILNLRKYAAERNL
soluble fraction (log2): -1.57

HMEQVLDEEIIKSAVQKVIKDNPSAVSDYKAGKKTAFQFLIGKAMAELQGKGHPGKISELLEKE
soluble fraction (log2): 0.257

HMEQVQQIPIEELFPFKEHPFKVLDDEAMQRTVESVAQYGVLAPLIARPRPEGGYEIISGHRRQHAAELYR
soluble fraction (log2): -0.445

HMEQWVSIEVEPGIRLDVALTEATQKSRSFIQNLIAEQRVLVNGQPKKANYKVRPGDHVELNYPEPT
soluble fraction (log2): -0.415

HMEREKTYLMPDLIGRKAERVVPRLQASGFKVEDIRHVYYPGLEKGVIVRQSPPGGYPIQKRNLINLEVS
soluble fraction (log2): 0.0984

HMERLKKYLDDVRTFLPGTNPKKVDEILREIESHVLERAEREHGEVNDNAVAMSIKEYGSPEEVAARYYEG
soluble fraction (log2): -0.29

HMERLSNQVYAILKEMIADYRFNPGARINVEQIAKEVGASRTPVWEAVHRLVQEGLLENIPNRGVFML
soluble fraction (log2): -1.11

HMERNAEDFAAKYQEIYQDMFRFALYTLKNRQEAEDVVSETVLDAWKGIEGLKNESAFSAWMFRILVNK
soluble fraction (log2): -0.325

HMESADEESNALMYDGLLAMRGKRYEVALEFFDALVKHDPDFAEGWNKRATVLYLLGRYERSIADIKQVLA
soluble fraction (log2): -0.0176

HMESAEQTGEELAARVNVLQTVSQALARELGREAAVEELADKMKMTVDEVKDIMKMAMDAMSM
soluble fraction (log2): -1.59

HMESAESRVDLIGMIGEAITDLRPAGTAQFGEERIDVVSESEWITEGSTVKVVSAEGYRHVVRVME
soluble fraction (log2): -1.01

HMESENANVNRAMLTGIASMHAGQLETALNKFNEVIQLAPDFAEGWNKRATIFYLMKKFDRSVNDIAQTLK
soluble fraction (log2): -0.741

HMESFGVAIKRLREAQGWTRADFLRQLGKTGYYMHATTLKRIEEGEQIAKVHEAVIISRLFGVTVEEMG
soluble fraction (log2): -1.3

HMESGFEAVREVARHGSFANAAKALGVSGPAVSRQVKSLEERLGLVFFHRTTRMVTLTEAGQQLVDTLD
soluble fraction (log2): -0.211

HMESGNLIFTNAPIADVVNAIETRYGKKLQASNQTSDLQFTGIFKNTDEFSTVVKTIEIALGLQFEV
soluble fraction (log2): -1.37

HMESIEAGTFELDNKTSIDISEDEANLLNKMFEELTETNSKDMYGVMVADEAGFNEILEFAKENL
soluble fraction (log2): -0.551

HMESNWLTYAKRIQSIADTGMTFAVDDFDKERYQELADISSKMLADLSNIPIGRIENLLGPLGQ
soluble fraction (log2): -1.26

HMESPVNTLPEDQRAWYKALPPELSTKTAVEAGAGVGVSERTVKRLLSNQTFFINLQRGNYRKRH
soluble fraction (log2): 0.314

HMESRMTYLQKTKLATENLDAKLIDHQQWVAEVLGEDYRGVYSDEYLRRAAKVFAIFVNNLDD
soluble fraction (log2): -1.41
